Reference: the supplement of paper PMC9170038

How the values were obtained:
[1] = tested on: MS2 coat protein; assay: apparent KD of MS2 coat protein, switch ON state; designed switch direction (-1 OFF switch, 1 ON switch): -1; higher = weaker reporter binding; details: FMN input: 0 or 200 uM; Eterna round: R93 (includes R88 designs)
Outline: (§1)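 Designed RNA switches were transcribed on-chip from Illumina sequencing clusters and titrated with SNAP-549-labelled MS2 coat protein in twofold steps from 0.7 or 1.5 nM up to 3 µM. Each step lasted 0.8–1.5 h at first and 10–20 min by the end, in 100 mM Tris-HCl pH 7.5, 80 mM KCl and 4 mM MgCl2, without or with constant ligand. Apparent KD is the median, for each design, of fits to normalised cluster binding curves.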

[2] = tested on: MS2 coat protein; assay: apparent KD of MS2 coat protein, switch OFF state (with FMN for OFF switches, without FMN for ON switches); designed switch direction (-1 OFF switch, 1 ON switch): -1; higher = weaker reporter binding; details: FMN input: 0 or 200 uM; Eterna round: R93 (includes R88 designs)
Outline: as §1

AGGAAACAUGAGGAUCACCCAUGUCAGGAUAUUGAAAAGAAAAGAAAAGAAAGAAGAACAAGAAGGGACAAGAA [Mekh]
apparent KD of MS2 coat protein [1]: 27.2 nM
apparent KD of MS2 coat protein [2]: 20.6 nM

GCUUGUCUAGGAUAUACAUGAGGAUCACCCAUGUGAGAGAAAAAAGUGAGAAAGAAAAGUAGAAGGAGGUGAGG [salish99-ex3-81]
apparent KD of MS2 coat protein [1]: 28.4 nM
apparent KD of MS2 coat protein [2]: 29.7 nM

AGGGAGUCAGGAUAUCGGAAAAAAAAACAACGAAAAAAAGACGAGAAGGGACAUGAGGAUCACCCAUGUAAGAA [milkweed 16]
apparent KD of MS2 coat protein [1]: 41.4 nM
apparent KD of MS2 coat protein [2]: 23.5 nM

AAAACUGGAGGAUAUACAUGAGGAUCACCCAUGUGUGGGUAUACUGUGUCGGCGUCAGGUAGAAGGCCAAAAAA [Gilly Gone Silly 29 - Jieux - Exclusion 3]
apparent KD of MS2 coat protein [1]: 146 nM
apparent KD of MS2 coat protein [2]: 151 nM

UAAAGACAUGAGGAUCACCCAUGUGAGGAUAUUGGUGACUAUAAAAAAAAAUAGUCACCGAGAAGGCAUAGGAA [JR_Exc001_Sub302]
apparent KD of MS2 coat protein [1]: 31 nM
apparent KD of MS2 coat protein [2]: 42.4 nM

GAAAAACAUGAGGAUCACCCAUGUCAGGAUAUACAAAAAUAAAUAAAAAUAAAAUAAAGUAGAAGGGACAAAAG [Mat - Same state - Mayanna Mod - D110]
apparent KD of MS2 coat protein [1]: 52.9 nM
apparent KD of MS2 coat protein [2]: 57.3 nM

GGUUGGCGAGGAUAUACAUGAGGAUCACCCAUGUGAGAAAAAAAAGUGAGAAAGAAAAGUAGAAGGCGCUGACG [salish99-ex3-49]
apparent KD of MS2 coat protein [1]: 40.1 nM
apparent KD of MS2 coat protein [2]: 157 nM

GGUUGACAAGGAUAUACAUGAGGAUCACCCAUGUGAGAGAAAAAAGUGAGAAAGAAAAGUAGAAGGUGUUGACG [salish99-ex3-62]
apparent KD of MS2 coat protein [1]: 31 nM
apparent KD of MS2 coat protein [2]: 85 nM

GAAAGGGCAGGAUAUGCGGAGAGAGAGAGAGAGAGAGAGAGACAUGAGGAUCACCCAUGUAGAAGGGCCGAAAG [salish99-ex2-08]
apparent KD of MS2 coat protein [1]: 36.9 nM
apparent KD of MS2 coat protein [2]: 38.6 nM

AAAAAACAUGAGGAUCACCCAUGUGAGGAUAUGCGAAAAAAAAAAUAAAAAAAAAAAAGCAGAAGGCACAAAAA [LROPPY Exclusion 1 - v05_deltaG=1.64]
apparent KD of MS2 coat protein [1]: 37.6 nM
apparent KD of MS2 coat protein [2]: 58.5 nM

GAAGAACAUGAGGAUCACCCAUGUCAGGAUAUACAGAAGGGAAUAAUAUAAUCUGGAAGUAGAAGGGACAAGAA [Ex 1 May 45]
apparent KD of MS2 coat protein [1]: 31.8 nM
apparent KD of MS2 coat protein [2]: 51.4 nM

AAAAAACAUGAGGAUCACCCAUGUGAGGAUAUGUGAAAAAAAAAAUAAAAAAAAAAAAGCAGAAGGUACAAAAA [LROPPY Exclusion 1 - v03_deltaG=3.94]
apparent KD of MS2 coat protein [1]: 43.7 nM
apparent KD of MS2 coat protein [2]: 39.9 nM

AACAUACAUGAGGAUCACCCAUGUCAGGAUAUGCCGGGUUAGAACCAACUAAAAAAACGUAGAAGGGACAAAAA [Bilbo Confounded 5 - Jieux - Exclusion 1]
apparent KD of MS2 coat protein [1]: 63.3 nM
apparent KD of MS2 coat protein [2]: 46.7 nM

GAAAAGUCAGGAUAUGUGGAAAAAAUAAAAAAAAUAAAAACACAGAAGGGACAUGAGGAUCACCCAUGUUAAAA [Mat - Exclusion 4 - Mayanna - D137]
apparent KD of MS2 coat protein [1]: 52.4 nM
apparent KD of MS2 coat protein [2]: 28.8 nM

AAGAAACAUGAGGAUCACCCAUGUGAGGAUAUCGAAAAGAAAAGAAAAGAAAGAAGAAUGAGAAGGCACAAAGG [Shed—]
apparent KD of MS2 coat protein [1]: 30.9 nM
apparent KD of MS2 coat protein [2]: 29.8 nM

CUCAUGUCAGGAUAUAGCCACAUGAGGAUCACCCAUGUGGACUAGAAGGGACAUGAGGAUCACCCAUGUAUGAA
apparent KD of MS2 coat protein [1]: 11 nM
apparent KD of MS2 coat protein [2]: 11.3 nM

UAAAACUUAGGAUAUACAUGAGGAUCACCCAUGUCAAGACAAGGAAGGUCCUAAGCCGGUAGAAGGAAGAAAAU [Bexeora]
apparent KD of MS2 coat protein [1]: 29.6 nM
apparent KD of MS2 coat protein [2]: 25.4 nM

AAAAAACAUGAGGAUCACCCAUGUAAGGAUAUGCUCAAGCGAAAAAGCACAAAAAAGAGCAGAAGGUACAAAAA [66%, Wbt, 41]
apparent KD of MS2 coat protein [1]: 22.6 nM
apparent KD of MS2 coat protein [2]: 31 nM

GACACCGGAGGAUAUACAAGUCCUUACUGUCUAAAACCAUGACAUGAGGAUCACCCAUGUAGAAGGCCGAAAAG [Atbela]
apparent KD of MS2 coat protein [1]: 63.3 nM
apparent KD of MS2 coat protein [2]: 118 nM

AGCUAGAGAGGAUAUACAUAAAAAAAAAAAGUCUGAUCCCUACAUGAGGAUCACCCAUGUAGAAGGCUCUGGCA [Ex2 Design 157: Sub-opt 21]
apparent KD of MS2 coat protein [1]: 38.1 nM
apparent KD of MS2 coat protein [2]: 38.5 nM

GAAAAACAUGAGGAUCACCCAUGUAAGGAUAUGCUGAAAAACACGGAAAAAACGUGCAGCAGAAGGUACAAAAA [Mat - Exclusion 1 - Eli mod - D92]
apparent KD of MS2 coat protein [1]: 15.8 nM
apparent KD of MS2 coat protein [2]: 28.1 nM

AGUCGGCGAGGAUAUACAUGAGGAUCACCCAUGUGAGAGAAAAAGGUGAGUCAGAAAAGUAGAAGGCGCUGACA [JL Lego Mod 5]
apparent KD of MS2 coat protein [1]: 166 nM
apparent KD of MS2 coat protein [2]: 47.4 nM
